“And” between values parts separate entries of the source, which are not always exact repeats. Equal values may be shown once.
Experiments:
Experiment in all cases: native gel or EMSA; purified p66 on NativePage Novex Bis-Tris gel, then Western blotting with mouse monoclonal anti-RT antibody; in the presence or absence of β-mercaptoethanol
[1] = molecular target: HIV-1 reverse transcriptase p66 subunit, mutant I274A (HIV-1 (pNL4-3-ΔE-EGFP))
[2] = molecular target: HIV-1 reverse transcriptase p66 subunit, wild type (HIV-1 (pNL4-3-ΔE-EGFP))
[3] = molecular target: HIV-1 reverse transcriptase p66 subunit, mutant Y271A (HIV-1 (pNL4-3-ΔE-EGFP))

HIV-1 reverse transcriptase p66 subunit, mutant I274A (enzyme)
stoichiometry N [1]: 4 and 8

HIV-1 reverse transcriptase p66 subunit, wild type (enzyme)
stoichiometry N [2]: 2

HIV-1 reverse transcriptase p66 subunit, mutant Y271A (enzyme)
stoichiometry N [3]: 2 and 4

From paper PMC2701634
